Reference: US20040038876A1 (published 2004)

Biological target: T1, Shh receptor molecules on C3H10T1/2 cells (UniProt Q61115 1-1434)
T1 sequence (looked up): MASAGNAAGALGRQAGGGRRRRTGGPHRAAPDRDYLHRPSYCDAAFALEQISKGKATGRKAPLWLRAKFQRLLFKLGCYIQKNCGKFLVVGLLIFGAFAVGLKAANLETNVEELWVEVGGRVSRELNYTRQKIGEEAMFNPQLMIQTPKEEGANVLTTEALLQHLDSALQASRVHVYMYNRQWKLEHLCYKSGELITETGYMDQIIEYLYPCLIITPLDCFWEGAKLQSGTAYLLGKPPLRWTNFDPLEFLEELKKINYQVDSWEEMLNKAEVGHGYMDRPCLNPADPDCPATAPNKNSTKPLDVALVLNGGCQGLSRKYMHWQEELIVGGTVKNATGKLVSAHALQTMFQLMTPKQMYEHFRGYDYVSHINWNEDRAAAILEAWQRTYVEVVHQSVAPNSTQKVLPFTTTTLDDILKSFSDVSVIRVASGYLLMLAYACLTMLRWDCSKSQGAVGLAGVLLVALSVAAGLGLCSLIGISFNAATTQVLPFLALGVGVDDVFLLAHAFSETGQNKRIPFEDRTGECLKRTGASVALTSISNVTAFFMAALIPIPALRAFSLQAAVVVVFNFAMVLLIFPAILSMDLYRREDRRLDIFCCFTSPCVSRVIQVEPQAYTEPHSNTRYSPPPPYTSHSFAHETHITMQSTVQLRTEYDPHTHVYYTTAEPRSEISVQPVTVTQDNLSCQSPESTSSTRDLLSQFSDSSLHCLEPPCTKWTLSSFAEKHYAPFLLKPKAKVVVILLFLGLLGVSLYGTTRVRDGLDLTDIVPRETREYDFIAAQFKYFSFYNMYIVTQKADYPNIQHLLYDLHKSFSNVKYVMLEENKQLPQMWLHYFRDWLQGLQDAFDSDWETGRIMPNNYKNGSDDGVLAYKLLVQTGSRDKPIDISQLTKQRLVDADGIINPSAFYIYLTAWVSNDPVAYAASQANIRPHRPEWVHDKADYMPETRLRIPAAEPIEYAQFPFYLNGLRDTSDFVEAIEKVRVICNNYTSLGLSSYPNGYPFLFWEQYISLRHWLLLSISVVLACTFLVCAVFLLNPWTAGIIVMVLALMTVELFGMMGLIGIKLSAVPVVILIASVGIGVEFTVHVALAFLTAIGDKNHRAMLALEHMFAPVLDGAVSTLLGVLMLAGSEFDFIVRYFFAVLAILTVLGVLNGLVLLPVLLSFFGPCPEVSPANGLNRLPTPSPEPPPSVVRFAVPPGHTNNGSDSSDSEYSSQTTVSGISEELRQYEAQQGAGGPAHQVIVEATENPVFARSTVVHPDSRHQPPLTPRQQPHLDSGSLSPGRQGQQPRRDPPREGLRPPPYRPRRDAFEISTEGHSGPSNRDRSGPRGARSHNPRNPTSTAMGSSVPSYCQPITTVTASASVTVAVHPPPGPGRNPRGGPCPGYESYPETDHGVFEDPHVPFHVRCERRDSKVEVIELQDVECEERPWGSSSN
Test: cell-based or functional assay

B1: mutant 44 (Shh C1II/A169C + E113C), unmodified (ligand)
chain: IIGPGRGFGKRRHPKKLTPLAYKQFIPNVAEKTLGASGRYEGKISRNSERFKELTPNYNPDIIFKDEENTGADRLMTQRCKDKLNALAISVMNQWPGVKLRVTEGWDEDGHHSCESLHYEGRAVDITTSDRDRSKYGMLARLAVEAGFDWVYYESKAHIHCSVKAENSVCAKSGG
Question: With B1 as the binder, how does the “IC50 in C3H10T1/2 assay” value read?
Answer: 1 µg/mL

B2: mutant 45 (Shh C1II/A169C + G146C), unmodified (ligand)
chain: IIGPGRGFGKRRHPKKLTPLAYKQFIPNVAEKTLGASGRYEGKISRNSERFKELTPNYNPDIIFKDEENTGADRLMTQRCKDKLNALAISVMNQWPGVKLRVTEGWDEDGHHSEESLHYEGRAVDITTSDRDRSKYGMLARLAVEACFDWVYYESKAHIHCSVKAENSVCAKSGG
Question: Which “IC50 in C3H10T1/2 assay” value does the source give for B2 here?
Answer: 0.3 µg/mL

B3: mutant 44 (Shh C1II/A169C + E113C), 5 K PEG (ligand)
chain: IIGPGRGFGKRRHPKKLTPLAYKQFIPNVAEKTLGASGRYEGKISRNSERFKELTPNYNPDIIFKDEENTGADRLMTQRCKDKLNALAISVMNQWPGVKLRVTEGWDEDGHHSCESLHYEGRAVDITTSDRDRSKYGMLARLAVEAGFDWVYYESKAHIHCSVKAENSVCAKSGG
modifications: 5 K PEG maleimide on thiol of Cys113, Cys169
Question: For B3, which “IC50 in C3H10T1/2 assay” value is on record?
Answer: 0.6 µg/mL

B4: mutant 45 (Shh C1II/A169C + G146C), 5 K PEG (ligand)
chain: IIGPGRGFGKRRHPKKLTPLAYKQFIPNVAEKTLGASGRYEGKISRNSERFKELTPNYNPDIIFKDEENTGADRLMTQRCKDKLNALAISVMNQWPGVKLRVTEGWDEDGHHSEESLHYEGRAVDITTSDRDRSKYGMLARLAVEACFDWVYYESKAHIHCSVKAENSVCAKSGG
modifications: 5 K PEG maleimide on thiol of Cys146, Cys169
Question: B4 was tested. Which “IC50 in C3H10T1/2 assay” value did it give?
Answer: 0.5 µg/mL
